B1: Syn5 RNAP: single subunit DNA-dependent RNA polymerase from marine cyanophage Syn5, amino acid sequence SEQ ID NO:23 (protein)
chain: MSFDLIARQLQRETEAAELARKRLQDARREANERSYASSNIESRKAIATFLDPIAQRIGERLFTLRRGTGAVDAAEVYKHLKNADHHHLALITMKTALDVLGKDPEPQIQQLTTAIGRNIQLELRLTYYAEENPELYKQASRFFHAGTGTRQKATVIKLKFNREGIEWDQWSRVTCHKVGQWLMLAMADVTGWIERATDRTSGGRKTKTRICYSREFLQHRDTILAAAEQLAFCQWPMLCPPIEWSNDHNGGYLSEQIRRVNPLIRKTGPLGTRKQGDIPLAMLNNLQGQAYKVNPEVLDIANHCYESNVTVGKFIRHAPLPVPPSPGEDCTEDQLTAYKRARREAEDFNAQISQKNWRTTEVMYVARKYADEASFWMPASFDYRGRVYFLNTALNPQGTDFDKALLYFAEEGPVNEWWLSFHVATTYGLDKETMVNRVQWARDNHELIDRIASDPVRHTEWHDADEPWCFLAACLEYKACVIDGTKQTSGLPIGIDATCSGLQHLAAMTRCGRTAALVNVTPTDKPADAYKTVAQASLKHLPKEQHEWITRKVTKRPVMCTPYGVTMSSARGYIRDQLVKDGHKEDLRSPGVLNGIVKAIFNEAIPEVIPGPVQVMAWLKRSAGQIIDRGDSTITWTTPSGFEVVQDLKKSKTYEVKTRIMGGARIKLQVGDGFTDEPDRDHHKSALAPNVVHSNDASLLHLTFAFWDKPFTVIHDCVLGRSCDMDQMGSDIRLHFAEMYKADVMQDWADQVGVELPVDLIKNTLDIDSVNQSLYFFS
modifications: Amino acid sequence of a cyanophage Syn5 RNAP

Key:
[1] = Chamberlin et al. (1973); cited from earlier work
[2] = test system: plasmid pET24-S5 RNAP; assay: Incorporation of AMP by RNA polymerases from the improved purification; assay type: biochemical
Procedure: FIGS. 8A-8B depict RNA polymerases described further herein. A) SDS-PAGE gel of Syn5 RNA polymerase purified as previously reported (S50, 18), newly purified Syn5 RNA polymerase using Ni-NTA chromatography in the presence of 2 M NaCl (S5N1), newly purified Syn5 RNA polymerase purified using Ni-NTA and gel filtration chromatography in the presence of 2 M NaCl (S5N2), and T7 RNA polymerase. B) Incorporation of AMP at RT by 50 nM RNA polymerases shown in A). A plasmid with both a Syn5 and T7 promoter was used as template for transcription.
Reactions for FIG. 8B contained 40 mM Tris-HCl pH 8.0, 2 mM spermidine, 10 mM DTT, 200 µM[…] GTP, C[…]P, UTP and ^3H-ATP (20 cpm/pmole), 1.5 U/µl RNaseOUT™, 50 nM Syn5 or T7 RNAP and 4 nM plasmid pET24-S5 RNAP. Reaction mixtures were incubated at room temperature (RT, ˜24° C.). After various times the reactions were stopped by the addition of 20 mM EDTA. 4 µl of the mixtures were then loaded onto Whatman DE81 filter paper disks and the disks were washed to remove the unincorporated ^3H-ATP. The amount of insoluble ^3H-AMP, corresponding to nucleotides incorporated into newly synthesized RNA, was measured using a scintillation counter. The data were analyzed using Prism software.

[3] = test system: dsDNA template S5PhmttRNAProUGG; assay: Synthesis of human mt tRNAPro, short RNA, optimized conditions; assay type: biochemical
[4] = test system: dsDNA template (1, 2 or 3); assay: Incorporation of 2′-F-dNTP into RNA by wild-type Syn5 RNA polymerase (Mg buffer); assay type: biochemical
Description: FIG. 24 depicts gels showing incorporation of 2′-F-dNTP into RNA using WT Syn5 RNA polymerase.
According to certain aspects of the invention, wild-type Syn5 RNA polymerase was used in methods described herein for high yield 2′-F RNA synthesis, with DNA templates that allow incorporation of fewer than three 2′-F-dNTP into the first 12 nt of a full-length transcript and in a non-consecutive manner. Transcription initiation (synthesis of 2-12 nt RNA) can be the most unstable stage for an RNA polymerase. Once transcripts are extended over 12 nt, transcription elongation is robust and stable. To determine whether the incorporation of 2′-F-dNTP during the transcription initiation stage is a rate-limiting step of Syn5 RNA polymerase, Syn5 RNA polymerase transcription in the presence of 2′-F-dNTPs on DNA templates that allow various amounts of 2′-F-dNTP incorporation into the first 12 nt of the RNA products was compared. The following conditions were used.
The reaction components were incubated at 37° C. for 4 hrs. Then 0.4 µl of the reaction mixture were loaded onto 10% TBE gel and stained with ethidium bromide. […] See FIG. 1. lane 1 vs 2; 8 vs 7; 15 vs 14. […] Template 1 has also 3Gs but two of them are consecutive. […] See FIG. 1. lane 10 vs 7; lane 17 vs 14). […] Although there are only 2 Cs in the 1-12 nt region of template 1, two consecutive incorporations during the initiation stage prevented the efficient synthesis of RNA products containing 2′-F-dCMP. With template 3 starting with C, 2′-F-dCTP was still efficiently incorporated.

[5] = Solubility / precipitation of the purified enzyme; assay type: physicochemical; details: transcription reaction
Procedure: His-tagged Syn5 RNAP was expressed from a pET24 vector harboring His-tagged Syn5 RNAP gene between the NdeI and NotI sites (Zhu et al. (2013)) and purified by Ni-NTA agarose and gel filtration chromatography. 2 M NaCl was present during the purification procedure and was removed by dialysis as the protein was finally concentrated. E. coli BL21(DE3) cells over-producing the protein were cultured in 2 L LB medium containing 50 µg/ml kanamycin at 37° C. until they reached an OD600 of approximately 1.2. The gene for Syn5 RNAP was induced by the addition of 0.5 mM IPTG at 16° C. and incubation continued for 3 hr. Cells were harvested, resuspended in 50 mM sodium phosphate, pH 8.0, 100 mM NaCl, and lysed by three cycles of freeze-thaw in the presence of 0.5 mg/ml lysozyme. 2 M NaCl was then added to the lysed cells and the cleared lysate was collected by centrifugation. 2 ml Ni-NTA agarose was added to the clear lysate and mixed at 4° C. overnight. The resin was then washed with 30 ml of wash buffer (50 mM sodium phosphate, pH 8.0, 2 M NaCl, and 20 mM imidazole). […] Fractions were analyzed on SDS-PAGE gels and those with Syn5 RNAP over 80% were collected and concentrated with Amicon Ultra-15 Centrifugal Filter Units (Millipore) to 1 ml. […] Fractions were analyzed on SDS-PAGE gels and those with homogenous Syn5 RNAP were pooled. […]

Row | Molecule | temperature of maximum activity [1] | activity of enzyme purified by Ni-NTA and gel filtration ([2]; 50 nM RNAP, RT) | increase of specific activity by improved purification (2 M NaCl) ([2]; versus previous three-step purification) | estimated yield of RNA ([3]; 100 µl transcription reaction) | enzyme activity ([3]; at 42° C.) | reduction of yield ([3]; final NTP 4 mM instead of 8 mM) | full-length products containing 2′-F-dUMP ([4]; template 1 and 3) | incorporation of 2′-F-dUTP ([4]; template 2) | incorporation of 2′-F-dCTP ([4]; template 2 and 3) | full-length transcript with ATP replaced by 2′-F-dATP ([4]; templates 1, 2, 3) | discrimination against 2′-F-dCTP ([4]; transcription elongation) | final concentration in the reaction resulting in severe protein precipitation [5]
1 | T7 RNAP: RNA polymerase encoded by bacteriophage T7, from New England Biolabs [reference compound] | 37 °C | – | – | – | – | – | – | – | – | – | – | –
2 | B1 | – | close to that of T7 RNAP | 2 fold | 4 nmole/100 µl | very low | approximately 20% | low yield | efficient incorporation | incorporated very well | none of them produces full-length transcript | no intrinsic discrimination against 2′-F-dCTP | over 5 µM
